Assay results from IntAct's records for PubMed 24012959.

B1: "Na(+)/H(+) exchange regulatory cofactor NHE-RF1" (Homo sapiens), O14745 (parent)
chain: MSADAAAGAPLPRLCCLEKGPNGYGFHLHGEKGKLGQYIRLVEPGSPAEKAGLLAGDRLVEVNGENVEKETHQQVVSRIRAALNAVRLLVVDPETDEQLQKLGVQVREELLRAQEAPGQAEPPAAAEVQGAGNENEPREADKSHPEQRELRPRLCTMKKGPSGYGFNLHSDKSKPGQFIRSVDPDSPAEASGLRAQDRIVEVNGVCMEGKQHGDVVSAIRAGGDETKLLVVDRETDEFFKKCRVIPSQEHLNGPLPVPFTNGEIQKENSREALAEAALESPRPALVRSASSDTSEELNSQDSPPKQDSTAPSSTSSSDPILDFNISLAMAKERAHQKRSSKRAPQMDWSKKNELFSNL

Variants of: B1
Settings: with pgfrb_human PDGFRB

Variant	effect of a mutation on the interaction
D301V	increasing interaction
